Experimental data reported in PMC4030953, “Pyranose Dehydrogenase from Agaricus campestris and Agaricus xanthoderma: Characterization and Applications in Carbohydrate Conversions” (Biomolecules, 2013).

B1: AxPDH (Agaricus xanthodermus) (protein)
chain: AITYQHPDDLPSNVNYDFIVAGGGTAGLVVASRLSENSDWNILVIEAGPSNKDTPETRVPGLADSLPGSRTDWNYTTIPQDALGGRSLNYSRAKVLGGCSTHNGMVYTRGSEDDWNYWAEVTGDQALSWDSVLPIMKKAEKFSQDFSDQSVDGHIDPAVHGRDGLLSVVASYTNVSFNDLLLQTTKELSDEFPFKLDLNDGKPHELAWTQYTIDHNAERSSSATSYLETTGDNVHVLVNTHVTRIVSAGNGTNFRSVEFAVDSNSPKKVLQAKKELILSAGVIASPQVLMNSGIGGREELQAIGVDTLIDNPSVGKNLSDQAATLLMFDTTLPNTDYDVAAALTEWDKSRSGPMAHGARLNHLTWVRLPDDKLNGSDPSSGKDSPHIEFQFRQISHQLPPADVPNQVQLPDPDSIGVVLQFSVVNLYSISPGSVILNDNDPFANPMIDLNMFGDQKDIAILREGVRSARRMFSSPAFKDVINGTVYPPADVTSDEDLDAFLRTSAESYWHGVGTLSMSPQNASWGVVNPDFRVKGTSGLRVVDASVIPRAPAGHTQVPVYTFAEHASVLIAASYH
B2: AcPDH (Agaricus campestris) (protein)
chain: AITYQHPDDLPGDVDYDFIVAGGGTAGLVVASRLGENSKWNVLVIEAGPSNKDVFATRVPGLAETLPTSHIDWNYTTVPQQALGGRSLNYSRAMILGGCSTHNGMVYTRGSKDDWNKWADVTGNRDLSWDSILPIMKKVEKFSEDFSDQSVEGHIDPSVHGNDGKLSVVASYTNVSFNDLLLETTKELVDEFPFKLDMNDGNPVGLTWNQYTIDHNAERSSSATAYLESTGDNVHVLLNTRVTRIVPTGKTNFRTVEFAVDAGGPRKQLTAKKEVILSGGFIASPQILMNSGIGDQEALKAVGVDTLVNNPSVGKNVSDQAATLVLFDTTLPNTDFDVDAAIVEWNNSHAGPLATGAPLNHLIWVRLSDDKLSGSDPSSGKDSPHIEFQFSKISHRIPPANVPNQVALPSQDSIGVVIQFSVVNLNSISRGSVSLNDNNPFSHPLIDLNMLGEEQDIAILREGVHSARRMLSSEAFKPFVNGSVHPPANITSDEDLDAFLHTTTKSYLHGVGTLSMSPQNASWGVVDPDFRVKGTTGLRVVDASVIPSVPAGHTQTPVYAFAEYASIVIAKSYN

What was measured:
Assay in all cases: spectrophotometric electron acceptor reduction
Details in all cases: apparent, 25 mM D-glucose, pH 4, 30 °C
[1] = substrate: O=C1C(Cl)=CC(=Nc2ccc(O)cc2)C=C1Cl; type: biochemical, Agaricus xanthodermus
Text: (§1) spectrophotometric electron acceptor reduction on AxPDH

[2] = substrate: O=C1C=CC(=O)C=C1; type: biochemical, Agaricus xanthodermus
Text: as §1

[3] = substrate: O=C1C(Cl)=CC(=Nc2ccc(O)cc2)C=C1Cl; type: biochemical, Agaricus campestris
Text: (§2) spectrophotometric electron acceptor reduction on AcPDH

[4] = substrate: O=C1C=CC(=O)C=C1; type: biochemical, Agaricus campestris
Text: as §2

Row | Protein | Km [1] [mM] | kcat [1] [s⁻¹] | kcat/Km [1] [M⁻¹ s⁻¹] | Km [2] [mM] | kcat [2] [s⁻¹] | kcat/Km [2] [M⁻¹ s⁻¹] | Km [3] [mM] | kcat [3] [s⁻¹] | kcat/Km [3] [M⁻¹ s⁻¹] | Km [4] [mM] | kcat [4] [s⁻¹] | kcat/Km [4] [M⁻¹ s⁻¹]
1 | B1 | 0.09 ± 0.01 | 7.65 ± 0.66 | 85000 | 3.25 ± 0.51 | 12.9 ± 1.56 | 4000 | – | – | – | – | – | –
2 | B2 | – | – | – | – | – | – | 0.11 ± 0.00 | 10.6 ± 0.57 | 96000 | 0.12 ± 0.01 | 34.8 ± 1.02 | 303000
